Laboratory results from PMC1291349, “Molecular Identification of a Malaria Merozoite Surface Sheddase” (PLoS Pathogens, 2005).

Experiments:
[1] = molecular target: PfSUB2T, 72-kDa terminal intracellular form of PfSUB2, HA3-tagged (P. falciparum) (UniProt O97364)
subtilisin BPN′ = molecular target: T1, subtilisin BPN′ (UniProt P00782 108-382); experiment: enzyme inhibition kinetics (Ki determination); hydrolysis of N-succinyl-L-Ala-L-Ala-L-Pro-L-Phe-p-nitroanilide by subtilisin BPN′ with PfSUB2PD; Ki determined as in ref. 33; data not shown; details: both partners purified
T1 construct: subtilisin BPN′, a bacterial subtilisin; source: bought: Sigma
T1 sequence (looked up): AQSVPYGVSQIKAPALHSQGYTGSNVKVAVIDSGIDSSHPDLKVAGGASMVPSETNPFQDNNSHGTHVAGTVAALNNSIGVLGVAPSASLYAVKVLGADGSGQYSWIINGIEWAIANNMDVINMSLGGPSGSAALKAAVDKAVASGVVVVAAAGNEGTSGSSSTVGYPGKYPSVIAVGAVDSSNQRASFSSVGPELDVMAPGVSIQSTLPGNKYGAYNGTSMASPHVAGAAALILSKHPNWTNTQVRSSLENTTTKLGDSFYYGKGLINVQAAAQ

Sequence of PfSUB2T, 72-kDa terminal intracellular form of PfSUB2, HA3-tagged (P. falciparum) (O97364 688-1342): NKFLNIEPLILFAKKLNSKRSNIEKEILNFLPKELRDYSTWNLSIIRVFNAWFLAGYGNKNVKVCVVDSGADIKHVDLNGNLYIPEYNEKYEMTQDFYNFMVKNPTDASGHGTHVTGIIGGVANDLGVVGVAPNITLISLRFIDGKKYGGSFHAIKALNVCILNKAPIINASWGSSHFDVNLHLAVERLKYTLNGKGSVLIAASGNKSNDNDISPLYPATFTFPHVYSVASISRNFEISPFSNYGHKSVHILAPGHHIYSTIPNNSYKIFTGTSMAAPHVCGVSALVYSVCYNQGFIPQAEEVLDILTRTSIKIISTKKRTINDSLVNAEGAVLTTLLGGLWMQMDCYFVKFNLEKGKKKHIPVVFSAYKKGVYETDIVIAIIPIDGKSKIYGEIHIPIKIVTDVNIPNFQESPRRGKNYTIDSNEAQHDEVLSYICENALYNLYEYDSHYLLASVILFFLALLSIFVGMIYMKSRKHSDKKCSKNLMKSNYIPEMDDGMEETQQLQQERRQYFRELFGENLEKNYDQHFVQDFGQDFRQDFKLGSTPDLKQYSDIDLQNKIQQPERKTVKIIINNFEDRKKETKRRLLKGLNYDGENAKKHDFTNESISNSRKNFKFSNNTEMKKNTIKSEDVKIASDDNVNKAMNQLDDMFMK

B1: PfSUB2PD (recombinant PfSUB2 propeptide, Asn22-Leu687) (domain or fragment)
chain: NNNNNYYLSNIELYNYKLRKRNRILNNNINDRKSFLSDLEQNYKPLFDIYELSANFEKRRKELEKKTKGEENEIEKKKENDLEEKKENEIEKKKENDLEKEYNDVINLLELSLSSEYKELNADVSNNDNSGHEENNKHKLNKKNSSNYKNDKSLDELIKGAILKLKQNPNIKNKNMLDYDKIFKIIKEKLINKNLASNKIKGGDNEKLKEEKKQSDISTNVEVKKDIINDQLNKGIPTKIENKDDMINKESNKEDITNEGKSNSLNNLNTLNNDGNIITKVYDHYTIVTNSNDILNDISIDASDISKNSIGGINIPFNENDNSSFTHQRYIVLSNNGEKKYKIVLMTKNPKFMDMDGIYDEEEKKESLIELNQKVNKEENTNLYDGTGTLYYGKKSKKEKENTQQKGGNNPNVDINILNNNNNNNNNNNNNSNNNSNSMNDEEINYNNNNNKESPSMFRRFINFLSFSGNENETEDTLIYHNKNDNSYKNKKEGTGKNNDNNDPNNNNNKKILLNVDKLVDQYLLNLKNNHTSKQELILVLKGELDLHSKNMKNVINNAKKNLEKYFKEHFKEFDKISYDISTPINFLCIFIPTLFDMNNMDLLKQALLILHNDLHEYVENWSFSSTYHTYEADYIKEQDSVYDRSPKKKYIKASKKLYNNKYSFL
notes: PfSUB2, subtilisin-like protease 2 of P. falciparum T9/96, propeptide region Asn22-Leu687, amplified from the synthetic gene pfsub2synth; Asn22 is the predicted N-terminus after signal peptide removal; Cleavable 46-residue N-terminal fusion peptide with His6 and S-tag, from the vector pET-30Xa/LIC; not shown: His6, N-terminal, kept; S-tag, N-terminal, kept
[1]
  IC50 of inhibition of shedding of AMA1 and MSP1 (MESH activity) from isolated 3D7 merozoites; PfSUB2PD titrated from 1.2 μM to 0.075 μM: 300 nM
Subtilisin BPN′
  Ki: 1200 nM
